Here are results for 1 molecule from patent US20170306044A1 (ENGMAB, published 2017).

Test [1] addresses T1, human ROR1 (tyrosine-protein kinase transmembrane receptor ROR1) (human, UniProt Q01973 30-937).
T1 construct: whole, on cells; the assays used the protein on cells
Kind of test: flow cytometry on SK-OV-3 ovarian cancer cells (MFI against antibody concentration); extrapolated value. As to the method: (§1) a) The level of expression of ROR1 is measured on human ovarian cancer cell lines by flow cytometry including PA-1, MCAS, EFO-21, COLO-704, SW-626, KURAMOCHI, OVSAHO, SNU-119, COV362, OVCAR-4, COV318, TYK-nu, ON/KATE, CAOV-4, OAW28, CAOV-3, 59M, ONCO-DG-1, OVCAR-3. OVCAR-5, ES-2, COV-504, OV-90, RMUG-S, COV-644, SNU-840, OVISE, OAW42, OVTOKO, OVMANA, COV-434, OV56, SK-OV-3N2780, IGROV-1, and/or TOV-21G. Briefly, cells are harvested, washed, counted for viability, resuspended at 50,000 cells/well of a 96-well round bottom plate and incubated with Alexa488-labeled anti human ROR1 antibody for 30 min at 4° C. All ROR1 and isotype control antibodies are titrated and analyzed in final concentration range between 0.01-100 nM. […] At the end of incubation time, cells are centrifuged (5 min. at 350 x g), washed twice with FACS buffer, resuspended in 100 u.l FACS buffer and analyzed on a CantoII device running FACS Diva software. Expression of ROR1 is then quantitified as the median fluorescence intensity (MFI) and graphs showing the MFI in function of ROR1 antibody concentrations are plotted. EC50 values are then measured using Prism software (GraphPad). […] The calculated EC50s for binding of ROR1 Mab1 to SK-OV-3 are extrapolated values and may be underestimated. […]

Test [2] has as its target T1, human ROR1 (tyrosine-protein kinase …). The experiment in a line: flow cytometry, maximum MFI at 10 µg/mL antibody, PA-1 against SK-OV-3 cells. How it is done:
as §1
(A flow cytometer gives signals particle by particle.)

Test [3] has the same target. Kind of test: flow cytometry on PA-1 ovarian cancer cells (MFI against antibody concentration). How it is done: as §1

Several values for one entry are separate records, joined by “and”; a condition that tells them apart may be missing. Equal values may be shown once.

A word on the EC50: it is the concentration needed to bring the measured effect to its halfway point.

T1 sequence (Q01973 30-937): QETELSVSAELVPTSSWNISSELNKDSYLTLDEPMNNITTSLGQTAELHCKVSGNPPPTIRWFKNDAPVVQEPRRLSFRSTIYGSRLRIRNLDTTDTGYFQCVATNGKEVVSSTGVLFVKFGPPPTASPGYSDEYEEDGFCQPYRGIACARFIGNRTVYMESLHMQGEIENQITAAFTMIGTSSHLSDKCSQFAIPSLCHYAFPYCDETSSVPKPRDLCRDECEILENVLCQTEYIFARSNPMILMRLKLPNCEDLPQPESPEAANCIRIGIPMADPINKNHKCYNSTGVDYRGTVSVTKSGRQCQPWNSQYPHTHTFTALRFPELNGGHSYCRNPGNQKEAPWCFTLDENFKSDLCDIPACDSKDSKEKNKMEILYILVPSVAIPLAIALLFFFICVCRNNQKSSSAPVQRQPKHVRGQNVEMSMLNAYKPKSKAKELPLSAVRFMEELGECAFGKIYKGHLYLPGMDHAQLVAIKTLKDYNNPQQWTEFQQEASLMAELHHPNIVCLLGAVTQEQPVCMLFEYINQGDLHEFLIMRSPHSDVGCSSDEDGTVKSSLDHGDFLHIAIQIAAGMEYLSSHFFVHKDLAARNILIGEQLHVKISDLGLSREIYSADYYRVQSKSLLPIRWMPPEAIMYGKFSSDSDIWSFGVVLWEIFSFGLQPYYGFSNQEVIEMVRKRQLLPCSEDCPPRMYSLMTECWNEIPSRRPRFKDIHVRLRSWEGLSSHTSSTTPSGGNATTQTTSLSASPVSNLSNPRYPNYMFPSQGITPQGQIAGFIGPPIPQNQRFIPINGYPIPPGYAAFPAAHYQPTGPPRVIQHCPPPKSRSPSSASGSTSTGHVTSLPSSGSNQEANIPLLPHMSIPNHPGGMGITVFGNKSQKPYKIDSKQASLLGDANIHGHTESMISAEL

B1: ROR1 Mab1 IgG (anti-ROR1 antibody MAB1) (antibody, V domains shown)
VH: QEQLVESGGRLVTPGGSLTLSCKASGFDFSAYYMSWVRQAPGKGLEWIATIYPSSGKTYYATWVNGRFTISSDNAQNTVDLQMNSLTAADRATYFCARDSYADDGALFNIWGPGTLVTISS
VL: ELVLTQSPSVSAALGSPAKITCTLSSAHKTDTIDWYQQLQGEAPRYLMQVQSDGSYTKRPGVPDRFSGSSSGADRYLIIPSVQADDEADYYCGADYIGGYVFGGGTQLTVTG
notes: also called ROR1 IgG; Mab1 anti-ROR1 antibodies
As for B1, the 50% effective concentration (EC50) in test [1] is ~4.62 nM and ~0.69 µg/mL; in test [3], 0.87 nM and 0.13 µg/mL. For the same molecule, the “maximum MFI on PA-1 cells relative to SK-OV-3 cells” value in test [2] was ~3 fold.
